In this assay the target is BG505 SOSIP.664 Env trimer (HIV-1 (BG505)). Briefly: BLI; biotinylated BG505 SOSIP.664 trimer (10 µg/mL) captured on Streptavidin biosensors; ScFv in 2-fold dilution series starting at 500 nM; 1:1 binding model, global fit; KD = koff/kon.

pKd: −log10 of the molar value. A value given as a limit tells only on which side of the number the result lay.

Usually pKd stands for −log10 of the Kd, conventionally taken in molar units. Low values mean a large Kd, high ones a small Kd. For orientation: koff means the rate constant with which the complex falls apart. As for VRC01 ScFv (parental ScFv), the negative-log Kd (pKd) was above 12.00 and the koff is below 1e-07 s⁻¹.

These data come from publication PMC5830440.
